Among the data in patent US20240400708A1 are Kd values, retold here.

Assay [1] addresses feline FcRn complex (FcRn-α subunit and β-microglobulin) (feline). Briefly: SPR (Biacore), FcRn on SA chip, pH 6. Background: SPR reads the build-up and loss of mass on a sensor chip optically.
Assay [2] shares this target. Briefly: SPR (Biacore), FcRn on SA chip, pH 7.4.
The target of assay [3] is feline FcRn complex (FcRn-α subunit and β-microglobulin), biotin labeled (feline). Briefly: SPR, pH 7.4.
The target is the same in assay [4]. Briefly: SPR, pH 6.

As usually defined, the Kd is the constant that tells how readily two partners part at equilibrium. Low readings indicate higher affinity, high ones lower affinity.

With “feline IgG1a mutant ID No. 357: S252Y, S434R, A431K (antibody)”, the values for the Kd in assay [1] and in assay [2] were 0.769 nM and 25.9 nM, respectively.
For “feline IgG1a mutant ID No. 366: S252Y, S434R, E430I (antibody)” the same measures were 0.322 nM and 26.1 nM.
For “feline IgG1a mutant ID No. 260: S252Y, S254T, T256E (antibody)” the same measures were 13.2 nM and 66.5 nM.
For “feline IgG1a mutant ID No. 358: S252Y, S434R, A431K (antibody)” the same measures were 0.748 nM and 28.3 nM.
As for “feline IgG1a mutant ID No. 365: S252Y, S434R, E430I (antibody)”, the Kd is 0.296 nM in assay [1] and 28.9 nM in assay [2].
For “feline IgG1a mutant ID No. 278: S252R, S434H, Q311W (antibody)” the same measures were 5.45 nM and 5910 nM.

B1: feline IgG1a mutant ID No. 246: S252Y, S428M, S434W (antibody, part only; not given: Variable domains, not shown: another chain or arm of the molecule)
constant: ASTTAPSVFPLAPSCGTTSGATVALACLVLGYFPEPVTVSWNSGALTSGVHTFPAVLQASGLYSLSSMVTVPSSRWLSDTFTCNVAHPPSNTKVDKTVRKTDHPPGPKPCDCPKCPPPEMLGGPSIFIFPPKPKDTLYISRTPEVTCLVVDLGPDDSDVQITWFVDNTQVYTAKTSPREEQFNSTYRVVSVLPILHQDWLKGKEFKCKVNSKSLPSPIERTISKAKGQPHEPQVYVLPPAQEELSRNKVSVTCLIKSFHPPDIAVEWEITGQPEPENNYRTTPPQLDSDGTYFVYSKLSVDRSHWQRGNTYTCSVMHEALHWHHTQKSLTQSPGK
With B1, the results for the Kd in assay [1] and in assay [2] were 0.0406 nM and 7.91 nM, respectively.

B2: feline IgG1a mutant ID No. 249: S428M, L314K (antibody, part only; not given: variable domains and light chain, not shown: another chain or arm of the molecule; small tags and cut ends)
constant: ASTTAPSVFPLAPSCGTTSGATVALACLVLGYFPEPVTVSWNSGALTSGVHTFPAVLQASGLYSLSSMVTVPSSRWLSDTFTCNVAHPPSNTKVDKTVRKTDHPPGPKPCDCPKCPPPEMLGGPSIFIFPPKPKDTLSISRTPEVTCLVVDLGPDDSDVQITWFVDNTQVYTAKTSPREEQFNSTYRVVSVLPILHQDWKKGKEFKCKVNSKSLPSPIERTISKAKGQPHEPQVYVLPPAQEELSRNKVSVTCLIKSFHPPDIAVEWEITGQPEPENNYRTTPPQLDSDGTYFVYSKLSVDRSHWQRGNTYTCSVMHEALHSHHTQKSLTQSPGK
Turning to B2, the Kd in assay [1] is 0.978 nM; in assay [2], 19300 nM.

B3: feline IgG1a Y404Q (antibody, part only; not given: Variable domains, not shown: another chain or arm of the molecule)
constant: ASTTAPSVFPLAPSCGTTSGATVALACLVLGYFPEPVTVSWNSGALTSGVHTFPAVLQASGLYSLSSMVTVPSSRWLSDTFTCNVAHPPSNTKVDKTVRKTDHPPGPKPCDCPKCPPPEMLGGPSIFIFPPKPKDTLSISRTPEVTCLVVDLGPDDSDVQITWFVDNTQVYTAKTSPREEQFNSTYRVVSVLPILHQDWLKGKEFKCKVNSKSLPSPIERTISKAKGQPHEPQVYVLPPAQEELSRNKVSVTCLIKSFHPPDIAVEWEITGQPEPENNYRTTPPQLDSDGTQFVYSKLSVDRSHWQRGNTYTCSVSHEALHSHHTQKSLTQSPGK
As to B3, the Kd in assay [3] amounted to 9940 nM; in assay [4], 9.96 nM.

B4: feline IgG1a mutant ID No. 353: S252Y, S428M, S434F, S254V (antibody, part only; not given: Variable domains, not shown: another chain or arm of the molecule)
constant: ASTTAPSVFPLAPSCGTTSGATVALACLVLGYFPEPVTVSWNSGALTSGVHTFPAVLQASGLYSLSSMVTVPSSRWLSDTFTCNVAHPPSNTKVDKTVRKTDHPPGPKPCDCPKCPPPEMLGGPSIFIFPPKPKDTLYIVRTPEVTCLVVDLGPDDSDVQITWFVDNTQVYTAKTSPREEQFNSTYRVVSVLPILHQDWLKGKEFKCKVNSKSLPSPIERTISKAKGQPHEPQVYVLPPAQEELSRNKVSVTCLIKSFHPPDIAVEWEITGQPEPENNYRTTPPQLDSDGTYFVYSKLSVDRSHWQRGNTYTCSVMHEALHFHHTQKSLTQSPGK
In assay [2], B4 came in with a Kd of 6.68 nM.

B5: feline IgG1a mutant ID No. 248: S428M, D312P (antibody, part only; not given: Variable domains, not shown: another chain or arm of the molecule)
constant: ASTTAPSVFPLAPSCGTTSGATVALACLVLGYFPEPVTVSWNSGALTSGVHTFPAVLQASGLYSLSSMVTVPSSRWLSDTFTCNVAHPPSNTKVDKTVRKTDHPPGPKPCDCPKCPPPEMLGGPSIFIFPPKPKDTLSISRTPEVTCLVVDLGPDDSDVQITWFVDNTQVYTAKTSPREEQFNSTYRVVSVLPILHQPWLKGKEFKCKVNSKSLPSPIERTISKAKGQPHEPQVYVLPPAQEELSRNKVSVTCLIKSFHPPDIAVEWEITGQPEPENNYRTTPPQLDSDGTYFVYSKLSVDRSHWQRGNTYTCSVMHEALHSHHTQKSLTQSPGK
As to B5, the Kd in assay [1] came out at 5.7 nM; in assay [2], 23.7 nM.

B6: feline IgG1a mutant ID No. 323: S428Y, D312P, S434Y, D399M, D401R, T403R (antibody, part only; not given: Variable domains, not shown: another chain or arm of the molecule)
constant: ASTTAPSVFPLAPSCGTTSGATVALACLVLGYFPEPVTVSWNSGALTSGVHTFPAVLQASGLYSLSSMVTVPSSRWLSDTFTCNVAHPPSNTKVDKTVRKTDHPPGPKPCDCPKCPPPEMLGGPSIFIFPPKPKDTLSISRTPEVTCLVVDLGPDDSDVQITWFVDNTQVYTAKTSPREEQFNSTYRVVSVLPILHQPWLKGKEFKCKVNSKSLPSPIERTISKAKGQPHEPQVYVLPPAQEELSRNKVSVTCLIKSFHPPDIAVEWEITGQPEPENNYRTTPPQLMSRGRYFVYSKLSVDRSHWQRGNTYTCSVYHEALHYHHTQKSLTQSPGK
For the molecule B6, in assay [2], the Kd was 1300 nM.

B7: feline IgG1a mutant ID No. 251: S428M, Q311Y (antibody, part only; not given: Variable domains, not shown: another chain or arm of the molecule)
constant: ASTTAPSVFPLAPSCGTTSGATVALACLVLGYFPEPVTVSWNSGALTSGVHTFPAVLQASGLYSLSSMVTVPSSRWLSDTFTCNVAHPPSNTKVDKTVRKTDHPPGPKPCDCPKCPPPEMLGGPSIFIFPPKPKDTLSISRTPEVTCLVVDLGPDDSDVQITWFVDNTQVYTAKTSPREEQFNSTYRVVSVLPILHYDWLKGKEFKCKVNSKSLPSPIERTISKAKGQPHEPQVYVLPPAQEELSRNKVSVTCLIKSFHPPDIAVEWEITGQPEPENNYRTTPPQLDSDGTYFVYSKLSVDRSHWQRGNTYTCSVMHEALHSHHTQKSLTQSPGK
As for B7, the Kd amounted to 5.83 nM in assay [1] and 20.3 nM in assay [2].

B8: feline IgG1a mutant ID No. 252: S428M, S434F (antibody, part only; not given: variable domains and light chain, not shown: another chain or arm of the molecule)
constant: ASTTAPSVFPLAPSCGTTSGATVALACLVLGYFPEPVTVSWNSGALTSGVHTFPAVLQASGLYSLSSMVTVPSSRWLSDTFTCNVAHPPSNTKVDKTVRKTDHPPGPKPCDCPKCPPPEMLGGPSIFIFPPKPKDTLSISRTPEVTCLVVDLGPDDSDVQITWFVDNTQVYTAKTSPREEQFNSTYRVVSVLPILHQDWLKGKEFKCKVNSKSLPSPIERTISKAKGQPHEPQVYVLPPAQEELSRNKVSVTCLIKSFHPPDIAVEWEITGQPEPENNYRTTPPQLDSDGTYFVYSKLSVDRSHWQRGNTYTCSVMHEALHFHHTQKSLTQSPGK
Take B8: the Kd in assay [1] was 0.19 nM; in assay [2], 27.4 nM.

B9: feline IgG1a mutant ID No. 350: S252Y, S428M, S434F, Q311M (antibody, part only; not given: Variable domains, not shown: another chain or arm of the molecule)
constant: ASTTAPSVFPLAPSCGTTSGATVALACLVLGYFPEPVTVSWNSGALTSGVHTFPAVLQASGLYSLSSMVTVPSSRWLSDTFTCNVAHPPSNTKVDKTVRKTDHPPGPKPCDCPKCPPPEMLGGPSIFIFPPKPKDTLYISRTPEVTCLVVDLGPDDSDVQITWFVDNTQVYTAKTSPREEQFNSTYRVVSVLPILHMDWLKGKEFKCKVNSKSLPSPIERTISKAKGQPHEPQVYVLPPAQEELSRNKVSVTCLIKSFHPPDIAVEWEITGQPEPENNYRTTPPQLDSDGTYFVYSKLSVDRSHWQRGNTYTCSVMHEALHFHHTQKSLTQSPGK
B9 had a Kd in assay [2] of 4.89 nM.

B10: feline IgG1a mutant ID No. 254: S428M, S434N (antibody, part only; not given: Variable domains, not shown: another chain or arm of the molecule)
constant: ASTTAPSVFPLAPSCGTTSGATVALACLVLGYFPEPVTVSWNSGALTSGVHTFPAVLQASGLYSLSSMVTVPSSRWLSDTFTCNVAHPPSNTKVDKTVRKTDHPPGPKPCDCPKCPPPEMLGGPSIFIFPPKPKDTLSISRTPEVTCLVVDLGPDDSDVQITWFVDNTQVYTAKTSPREEQFNSTYRVVSVLPILHQDWLKGKEFKCKVNSKSLPSPIERTISKAKGQPHEPQVYVLPPAQEELSRNKVSVTCLIKSFHPPDIAVEWEITGQPEPENNYRTTPPQLDSDGTYFVYSKLSVDRSHWQRGNTYTCSVMHEALHNHHTQKSLTQSPGK
Consider B10, for which the figures for the Kd in assay [1] and in assay [2] were 10.6 nM and 8.83 nM, respectively.

B11: feline IgG1a mutant ID No. 250: S428M, Q311W (antibody, part only; not given: Variable domains, not shown: another chain or arm of the molecule)
constant: ASTTAPSVFPLAPSCGTTSGATVALACLVLGYFPEPVTVSWNSGALTSGVHTFPAVLQASGLYSLSSMVTVPSSRWLSDTFTCNVAHPPSNTKVDKTVRKTDHPPGPKPCDCPKCPPPEMLGGPSIFIFPPKPKDTLSISRTPEVTCLVVDLGPDDSDVQITWFVDNTQVYTAKTSPREEQFNSTYRVVSVLPILHWDWLKGKEFKCKVNSKSLPSPIERTISKAKGQPHEPQVYVLPPAQEELSRNKVSVTCLIKSFHPPDIAVEWEITGQPEPENNYRTTPPQLDSDGTYFVYSKLSVDRSHWQRGNTYTCSVMHEALHSHHTQKSLTQSPGK
Regarding B11, the results for the Kd in assay [1] and in assay [2] were 5.56 nM and 33.2 nM, respectively.

B12: feline IgG1a mutant ID No. 247: S252Y, S428M, S434Y (antibody, part only; not given: Variable domains, not shown: another chain or arm of the molecule)
constant: ASTTAPSVFPLAPSCGTTSGATVALACLVLGYFPEPVTVSWNSGALTSGVHTFPAVLQASGLYSLSSMVTVPSSRWLSDTFTCNVAHPPSNTKVDKTVRKTDHPPGPKPCDCPKCPPPEMLGGPSIFIFPPKPKDTLYISRTPEVTCLVVDLGPDDSDVQITWFVDNTQVYTAKTSPREEQFNSTYRVVSVLPILHQDWLKGKEFKCKVNSKSLPSPIERTISKAKGQPHEPQVYVLPPAQEELSRNKVSVTCLIKSFHPPDIAVEWEITGQPEPENNYRTTPPQLDSDGTYFVYSKLSVDRSHWQRGNTYTCSVMHEALHYHHTQKSLTQSPGK
As to B12, the Kd is 0.0902 nM in assay [1] and 7.65 nM in assay [2].

B13: feline IgG1a S434F (antibody, part only; not given: Variable domains, not shown: another chain or arm of the molecule)
constant: ASTTAPSVFPLAPSCGTTSGATVALACLVLGYFPEPVTVSWNSGALTSGVHTFPAVLQASGLYSLSSMVTVPSSRWLSDTFTCNVAHPPSNTKVDKTVRKTDHPPGPKPCDCPKCPPPEMLGGPSIFIFPPKPKDTLSISRTPEVTCLVVDLGPDDSDVQITWFVDNTQVYTAKTSPREEQFNSTYRVVSVLPILHQDWLKGKEFKCKVNSKSLPSPIERTISKAKGQPHEPQVYVLPPAQEELSRNKVSVTCLIKSFHPPDIAVEWEITGQPEPENNYRTTPPQLDSDGTYFVYSKLSVDRSHWQRGNTYTCSVSHEALHFHHTQKSLTQSPGK
As to B13, the Kd was 21 nM in assay [3] and 0.745 nM in assay [4].
